{"source": "patent US9371393B2", "about": "“Class I anti-CEA antibodies and uses thereof” (Immunomedics, Inc., priority 2009, dated 2016)", "molecules": {"B1": {"name": "hMN-14 Fab′: Fab′ of MN-14 in its humanized form, hMN-14 or labetuzumab (antibody, chains of the INN, looked up, V domains shown)", "VH": "EVQLVESGGGVVQPGRSLRLSCSASGFDFTTYWMSWVRQAPGKGLEWIGEIHPDSSTINYAPSLKDRFTISRDNAKNTLFLQMDSLRPEDTGVYFCASLYFGFPWFAYWGQGTPVTVSS", "VL": "DIQLTQSPSSLSASVGDRVTITCKASQDVGTSVAWYQQKPGKAPKLLIYWTSTRHTGVPSRFSGSGSGTDFTFTISSLQPEDIATYYCQQYSLYRSFGQGTKVEIK", "modifications": "Fab′", "notes": "Fab′ of MN-14 in its humanized form, hMN-14 or labetuzumab"}}, "key": {"[1]": {"assay": "Stability of 18F-labeled IMP 272 in PBS", "type": "physicochemical", "details": "room temperature, 150 μL PBS, ~1 hr", "protocol": "F-18 Labeling of IMP 272—A 3 μL aliquot of the aluminum stock solution was placed in a REACTI-VIAL™ and mixed with 50 μL ^18F (as received) and 3 μL of the IMP 272 solution. The solution was heated in a heating block at 110° C. for 15 min and analyzed by reverse phase HPLC. […] An additional 10 μL of the IMP 272 solution was added to the reaction and it was heated again and analyzed by reverse phase HPLC (not shown). […] The remainder of the peptide solution was incubated at room temperature with 150 μL PBS for ˜1 hr and then examined by reverse phase HPLC."}, "[2]": {"assay": "Stability of purified 18F-labeled IMP 272 in water", "type": "physicochemical", "details": "25° C., 40 min", "protocol": "The labeled peptide was purified by applying the labeled peptide solution onto a 1 cc (30 mg) WATERS® HLB column (Part #186001879) and washing with 300 μL water to remove unbound F-18. The peptide was eluted by washing the column with 2×100 μL 1:1 EtOH/H2O. The purified peptide was incubated in water at 25° C. and analyzed by reverse phase HPLC (not shown). […] After 40 min incubation in water about 17% of the ^18F was released from the peptide, while 83% was retained (not shown)."}, "[3]": {"tested_on": "hMN-14×679", "assay": "Antibody binding of 18F-labeled IMP 272 by size exclusion HPLC, hMN-14×679", "protocol": "(§1) The peptide (16 μL 2 mM IMP 272, 48 μg) was labeled with ^18F and analyzed for antibody binding by size exclusion HPLC."}, "[4]": {"tested_on": "hMN-14×734", "assay": "Antibody binding of 18F-labeled IMP 272 by size exclusion HPLC, hMN-14×734", "protocol": "as §1"}, "[5]": {"biological_target": "RIIα dimers (DDD) (Homo sapiens, UniProt P13861)", "sequence (P13861 whole entry)": "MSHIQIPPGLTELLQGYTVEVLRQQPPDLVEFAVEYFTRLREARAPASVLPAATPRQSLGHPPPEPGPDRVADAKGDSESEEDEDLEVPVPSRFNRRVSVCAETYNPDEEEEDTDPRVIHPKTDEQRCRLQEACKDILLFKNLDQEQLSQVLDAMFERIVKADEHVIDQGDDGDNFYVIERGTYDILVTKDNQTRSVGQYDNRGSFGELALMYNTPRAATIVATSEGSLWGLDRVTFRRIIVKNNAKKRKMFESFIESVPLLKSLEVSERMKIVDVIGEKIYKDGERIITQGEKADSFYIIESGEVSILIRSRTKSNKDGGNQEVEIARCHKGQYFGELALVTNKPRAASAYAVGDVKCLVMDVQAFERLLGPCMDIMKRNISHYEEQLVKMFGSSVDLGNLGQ", "details": "Alto et al. 2003; read-out: affinity / binding constant for RIIα dimers (DDD); cited from earlier work"}, "[6]": {"tested_on": "tumor cell invasion", "assay": "Collagen-based invasion assay, cell line panel", "parameters": "species or system human", "protocol": "Collagen-based invasion assay—The assay was done using CHEMICON® Kit (#ECM551, MILLIPORE®, Billerica, Mass.). Tumor cells at 80% confluence and were serum-starved for 18 to 24 hours before the assay was used. Cells were harvested with 5 mol of 2 mmol/L EDTA/PBS per 100-mm dish and incubated at 37° C. for 5 to 15 minutes. Cells were collected into 10 to 20 mol of quenching medium (serum-free DMEM containing 5% BSA) to inactivate trypsin/EDTA from the harvesting buffer. Cells were pelleted, resuspended in quenching medium (1×10^6 cells/mol), and appropriate antibody Fabs were added to individual cell aliquots. Cell invasion potential was determined as follows. Baseline invasion and invasion in the presence of a chemoattractant (10% FBS) were measured after a 72-hour incubation period at 37° C. in a 5% CO2 incubator. The bottom side of the collagen-coated polycarbonate membrane insert of the invasion chamber was placed in 400 μL of cell stain for 20 minutes at room temperature and washed. The dye was extracted and transferred into a 96-well microtiter plate for colorimetric measurements (A560 nm)."}, "[7]": {"tested_on": "GW-39 human colonic carcinoma", "assay": "GW-39 intrapulmonary micrometastasis model (GW-39iv), survival", "type": "in vivo, nude mice", "details": "cells pretreated with Fab′ 10 μg/mol, 100 μg i.v. 1 day after implantation; untreated 42 days", "protocol": "FIG. 7 illustrates an exemplary in vivo micrometastasis study. Top, immunohistochemistry of GW-39 tumor sections stained with a nonspecific antibody (left), MN-14 anti-CEACAM5 (middle), and MN-15 anti-CEACAM6 (right) and photographed at 100×. Bottom, survival of nude mice implanted with 30 μL of a 10% suspension of GW-39 human colonic cancer cells. Mice were implanted with cells that were […] for 30 minutes with MN-3-, MN-15-, or hMN-14-Fab′ (10 μg/mol). Mice also received a single 100 μg dose of the same Fab′ 1 day after cell implantation.\nIn vivo therapy studies—Female athymic nude mice (6 to 8 weeks old) were purchased from TACONIC® (Germantown, N.Y.). Therapy studies were done using our CEACAM5+/CEACAM6+GW-39 intrapulmonary micrometastasis model, GW-39iv (Sharkey et al., J Natl Cancer Inst 1991, 83:627-32; Blumenthal et al., Cancer Res 1992, 52:6036-44). The GW-39 human colonic carcinoma has been maintained as a serially transplanted signet-ring cell cancer line since 1966 (Goldenberg et al., Transplantation 1966, 4:760-4). […] Body weight was monitored weekly and animal survival recorded. Results were analyzed by the Kaplan-Meier estimated survival curves, and significance was determined with the log-rank comparison of survival curves. Median survival time for each treatment group also was determined. […]"}}, "note": "[ ]: non-standard residue; d: D form. The star is where a group is joined. HSG = histaminyl-succinyl-glycine, O=C(CCC(=O)NCC(=O)*)NCCc1c[nH]cn1; DTPA = O=C(O)CN(CCN(CC(=O)O)CC(=O)O)CCN(CC(=O)O)CC(=O)*", "data": [{"molecule": "DTPA-Gln-Ala-Lys(HSG)-D-Tyr-Lys(HSG)-NH2 ({DTPA}-QAK(HSG)[dY]K(HSG)-NH2; SMILES C[C@H](NC(=O)[C@H](CCC(N)=O)NC(=O)CN(CCN(CCN(CC(=O)O)CC(=O)O)CC(=O)O)CC(=O)O)C(=O)N[C@@H](CCCCNC(=O)CNC(=O)CCC(=O)NCCc1c[nH]cn1)C(=O)N[C@H](Cc1ccc(O)cc1)C(=O)N[C@@H](CCCCNC(=O)CNC(=O)CCC(=O)NCCc1c[nH]cn1)C(N)=O) [^18F-labeled IMP 272]", "values": [{"measurement": "^18F still attached to the peptide", "setting": "[1]", "result": 42, "unit": "%"}, {"measurement": "^18F unbound", "setting": "[1]", "result": 58, "unit": "%"}, {"measurement": "^18F released from the peptide", "setting": "[2]", "result": "about 17%"}, {"measurement": "^18F retained", "setting": "[2]", "result": 83, "unit": "%"}, {"measurement": "binding to hMN-14×679", "setting": "[3]", "result": "bound"}, {"measurement": "binding to irrelevant bispecific antibody hMN-14×734", "setting": "[4]", "result": "did not bind"}]}, {"molecule": "QIEYLAKQIVDNAIQQA [AKAP-IS]", "values": [{"measurement": "Kd", "setting": "[5]", "result": 0.4, "unit": "nM"}]}, {"molecule": "B1", "values": [{"measurement": "effect on tumor cell invasion", "setting": "[6]", "result": "had no effect on tumor cell invasion in most cell lines"}, {"measurement": "median survival time", "setting": "[7]", "result": 49, "unit": "days"}]}]}
